In paper PMC12614781, “The VelB IDD promotes selective heterodimer formation of velvet proteins for fungal development” (Life Science Alliance, 2025):

Target: T1, VelB-GFP (A. nidulans Velvet-like B, full length, fused to GFP) (A. nidulans, UniProt C8VTS4 1-369)
T1 construct: Velvet-like B (VelB), A. nidulans, AN0363, full-length protein with the 99-aa intrinsically disordered domain (IDD) inside the velvet domain; Strains AGB1132 (wild-type background), AGB1190 (veA deletion background), AGB1136 (with vosA:ha), AGB1149 (with veA:ha); plasmid pME4687; Fusion printed as 67 kD; also called velB::sgfp; full-length VelB-GFP; source: A. nidulans, velB:gfp in locus under …
T1 sequence (looked up): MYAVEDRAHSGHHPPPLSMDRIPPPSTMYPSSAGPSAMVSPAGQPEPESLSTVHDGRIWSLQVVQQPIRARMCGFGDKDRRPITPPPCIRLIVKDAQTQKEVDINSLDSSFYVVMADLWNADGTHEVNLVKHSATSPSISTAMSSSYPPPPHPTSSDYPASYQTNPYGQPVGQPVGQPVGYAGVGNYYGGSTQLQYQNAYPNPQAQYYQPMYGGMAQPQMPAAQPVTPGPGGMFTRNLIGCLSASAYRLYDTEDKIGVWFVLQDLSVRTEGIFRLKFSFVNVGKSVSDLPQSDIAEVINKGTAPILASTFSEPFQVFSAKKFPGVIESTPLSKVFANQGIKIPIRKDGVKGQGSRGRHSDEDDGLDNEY
Test: co-IP; GFP and HA (anti-HA agarose) pull-downs from vegetative mycelium of A. nidulans strains expressing veA:HA or vosA:HA and velB:gfp or velB^ΔIDD:gfp under native promoters, intact veA; Western with GFP and HA antibodies
Conditions: partners not purified

B1: VosA-HA (A. nidulans VosA with HA tag) (natural protein, UniProt Q5BBX1 1-430, looked up)
chain: MSAANYPDPSLPRPSTSDDFELIVRQNPNRARVAGGKEKERKPVDPPPIVQIRVREEGTYLAQHYLQSPYFFMSCSLYDAQEDAPASIPPSTALTGTLVSSLHRLKDVDNTDGGFFVWGDLSIKVEGDFRLKFSLFEMRKTDVVFLKSIVSERFTVSPPKSFPGMAESTFLSRSFADQGVKLRIRKEPRTLIKRTAPRPEEYPQAAIPRSPSDRTAMQIPGSSYPAPPYQPTSRDYSYYAPVKRQRTSVDYGARGMYDADGRMRQMETYPQTATLYGQPGGYPTPMMGYPSGHGGVPDYAMSYGLPPSAQVPQMQDPAAQSRSSQQATMQSLGMVNPPGTPTPDSARAMMQQAYPRPQYSASTAVLPPLQQSRNYPQGTNGATRGYYEQSPQATPILPSQPLGTSEAERYGVPPGHTGYDHTGSANGTPR
notes: Viability of spores A (VosA), A. nidulans, AN1959; the vosA gene amplified with its 5' flanking region; Plasmid pME4693; strains AGB1136 (with velB:gfp) and AGB1137 (with velB^ΔIDD:gfp); source: A. nidulans, vosA:ha under its native promoter, in extract of vegetative mycelium
- fold abundance of VosA in the GFP pull-down against the VelB^ΔIDD-GFP strain: 10 fold
